Measured values: patent US20240190937A1, “HUMAN INSULIN C-ALPHA-PEPTIDES AND METHODS OF USE” (The United States of America, as represented by the …, priority 2021, published 2024)

Assays:
IAPP = target: T1, IAPP (Homo sapiens, UniProt P10997); experiment: IAPP aggregation assay (Thioflavin T fluorescence); type: biochemical; settings: 50 mmol/L IAPP plus 50 mmol/L peptide; 37° C.; range of 90-130 min; three replicates
T1 construct: IAPP (37 AA) (catalog number LT110006) (amidated C-terminal and disulfide bridge between Cys2 and Cys7) was from LifeTein; purchased LifeTein (Hillsborough, NJ) LT110006
T1 sequence (P10997 34-70 limits assumed): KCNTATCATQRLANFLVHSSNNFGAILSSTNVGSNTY
From the text: Thioflavin T (ThT) was from MilliporeSigma (catalog number T3516; Rockville, MD). IAPP (37 AA) (catalog number LT110006) (amidated C-terminal and disulfide bridge between Cys2 and Cys7) was from LifeTein (Hillsborough, NJ), and C-peptide (catalog number AS-61127) was from AnaSpec (Fremont, CA). Cα-peptide was custom made (Genemed Synthesis, Inc., San Antonio, TX). Black 96-well microplates (chimney well) were from Greiner Bio-One (Frickenhausen, Germany). Soluble and monomeric IAPP was made according to published protocols (Stine et al., Methods Mol. Biol. 670:13-32, 2011; Tu et al., Biochemistry 54:666-676, 2015), and the AnaSpec Manual of SensoLyte Thioflavin T Aggregation Kit (catalog number AS-72214) was used for the IAPP aggregation assay, with final concentration of 1% DMSO and […] ThT in component A buffer. The buffer was used as blank and IAPP without inhibitors, and the final concentration of IAPP and C- and Cα-peptides was […] each in the inhibition assays. Amyloid kinetics were measured by increasing ThT fluorescent amyloid binding intensity (1ex 440 nm; 1em 485 nm; height 3 mm; flashes 12) for 36 cycles, 5 min per cycle, at 37° C. with 15 s of shaking (100 rpm) between the reads in the EnSpire Multimode Plate Reader (PerkinElmer, Inc., Waltham, MA).

β-Amyloid (1-42) = β-Amyloid (1-42) (Homo sapiens, UniProt P05067); experiment: β-Amyloid (1-42) fibrillation assay (ThT binding to amyloid); type: biochemical; settings: 50 μM β-Amyloid plus 50 μM peptide; time range of 60-240 min; three replicates
Description: FIGS. 21A-21C show inhibition of β-Amyloid (1-42) fibrillation by C- (C-pep) and Cα-peptides (Cα-pep). […] FIG. 21B is a box-whisker plot on C- and Cα-pep inhibition of β-Amyloid fibrillation in time range of 60-240 min. […] Fluorescence intensity (F.I.) represents ThT binding to amyloid. AUC represents area under curve calculated by Trapezoid rule. Aβ(1-42) represents 50 μM β-Amyloid plus buffer, C-pep represents 50 μM β-Amyloid plus 50 μM C-pep, and Cα-pep represents 50 μM β-Amyloid plus 50 μM Cα-pep.
Thioflavin T (ThT) was from MilliporeSigma (catalog number T3516; Rockville, MD). IAPP (37 AA) (catalog number LT110006) (amidated C-terminal and disulfide bridge between Cys2 and Cys7) was from LifeTein (Hillsborough, NJ), and C-peptide (catalog number AS-61127) was from AnaSpec (Fremont, CA). Cα-peptide was custom made (Genemed Synthesis, Inc., San Antonio, TX). Black 96-well microplates (chimney well) were from Greiner Bio-One (Frickenhausen, Germany). […] Amyloid kinetics were measured by increasing ThT fluorescent amyloid binding intensity (1ex 440 nm; 1em 485 nm; height 3 mm; flashes 12) for 36 cycles, 5 min per cycle, at 37° C. with 15 s of shaking (100 rpm) between the reads in the EnSpire Multimode Plate Reader (PerkinElmer, Inc., Waltham, MA).

β-Amyloid (1-42), sequence (P05067 672-713 limits assumed): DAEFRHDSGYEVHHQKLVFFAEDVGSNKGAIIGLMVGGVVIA

Substance	inhibition of IAPP fibrillation (ThT fluorescence intensity, AUC) (IAPP)	inhibition of β-Amyloid fibrillation (ThT fluorescence intensity, AUC) (β-Amyloid (1-42))
C-peptide: classical 31-AA human insulin C-peptide, AnaSpec catalog number AS-61127 (EAEDLQVGQVELGGGPGAGSLQPLALEGSLQ)	inhibition of IAPP fibrillation	not
EAEDLQGSLQPLALEGSLQ (C-alpha peptide; listed as Homo sapiens) [Cα-peptide, human 19-AA insulin C-peptide variant encoded by INS3B isoform; custom made by Genemed Synthesis]	inhibited IAPP fibrillation more efficiently than C-peptide	inhibits
